Assay results taken from PMC8192788, “Macropinocytosis requires Gal-3 in a subset of patient-derived glioblastoma stem cells” (Communications Biology, 2021).

Target: T1, purified human Gal-3 (Biolegend) (human, UniProt P17931 1-250)
T1 construct: purified human Galectin-3 bought from Biolegend; No catalogue number printed; source: bought: Biolegend
Test: cell-free binding assay (coated plate, antibody detection by fluorescence); 96-well plates coated with purified human Gal-3 (0.5 µg in 100 µl, 4 °C overnight), blocked with 50 mg/mL BSA; recombinant human RAB10 0.25 to 0.5 µg/well, 4 h at 30 °C; bound RAB10 detected with rabbit anti-RAB10 and AF488 secondary antibody
Conditions: both partners purified

T1 sequence (P17931 whole entry): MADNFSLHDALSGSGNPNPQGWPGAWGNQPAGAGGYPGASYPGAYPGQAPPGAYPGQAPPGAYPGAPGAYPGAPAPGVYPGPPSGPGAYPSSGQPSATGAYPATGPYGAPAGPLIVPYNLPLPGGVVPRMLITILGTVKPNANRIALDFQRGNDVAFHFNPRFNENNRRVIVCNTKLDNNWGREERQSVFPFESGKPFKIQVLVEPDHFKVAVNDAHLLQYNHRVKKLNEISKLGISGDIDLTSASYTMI

B1: recombinant human RAB10 (Prospec PRO-1361) (natural protein, UniProt P61026 1-200, looked up)
chain: MAKKTYDLLFKLLLIGDSGVGKTCVLFRFSDDAFNTTFISTIGIDFKIKTVELQGKKIKLQIWDTAGQERFHTITTSYYRGAMGIMLVYDITNGKSFENISKWLRNIDEHANEDVERMLLGNKCDMDDKRVVPKGKGEQIAREHGIRFFETSAKANINIEKAFLTLAEDILRKTPVKEPNSENVDISSGGGVTGWKSKCC
notes: recombinant human RAB10 bought from Prospec; The vendor's data sheet for PRO-1361 should give limits and any His tag; source: bought: Prospec
B1: binds.
